From patent US20050074401A1

What was measured:
[1] = molecular target: recombinant ED-B domain of fibronectin, conjugated to Sepharose (UniProt P02751); assay: immunoreactivity of the labelled product (percent bound to ED-B Sepharose column, assay as in P-0168)
[2] = molecular target: recombinant ED-B domain of fibronectin, conjugated to Sepharose (UniProt P02751); assay: immunoreactivity of the labelled product, chloramine-T preparation (percent bound to ED-B Sepharose column, assay as in P-0168)
[3] = molecular target: recombinant ED-B domain of fibronectin, conjugated to Sepharose (UniProt P02751); assay: immunoreactivity of the labelled product, Iodogen preparation (percent bound to ED-B Sepharose column, assay as in P-0168)
[4] = molecular target: recombinant ED-B domain of fibronectin, conjugated to Sepharose (UniProt P02751); assay: ED-B Sepharose column on plasma 144 h after i.v. injection of 125I-antibody, normalised to value before injection
[5] = molecular target: recombinant ED-B domain of fibronectin, conjugated to Sepharose (UniProt P02751); assay: percent of 125I-labelled antibody bound to ED-B Sepharose column, before injection
[6] = molecular target: recombinant ED-B domain of fibronectin, conjugated to Sepharose (UniProt P02751); assay: ED-B Sepharose column on plasma 48 h after i.v. injection of 125I-antibody, normalised to value before injection
[7] = molecular target: recombinant ED-B domain of fibronectin, conjugated to Sepharose (UniProt P02751); assay: ED-B Sepharose column on plasma 6 h after i.v. injection of 125I-antibody, normalised to value before injection
[8] = molecular target: recombinant ED-B domain of fibronectin, conjugated to Sepharose (UniProt P02751); assay: ED-B Sepharose column on plasma 72 h after i.v. injection of 125I-antibody, normalised to value before injection
[9] = molecular target: recombinant ED-B domain of fibronectin, conjugated to Sepharose (UniProt P02751); assay: ED-B Sepharose column on plasma 24 h after i.v. injection of 125I-antibody, normalised to value before injection
[10] = molecular target: recombinant ED-B domain of fibronectin, conjugated to Sepharose (UniProt P02751); assay: ED-B Sepharose column on plasma 3 h after i.v. injection of 125I-antibody, normalised to value before injection

radioiodinated (125I) L19-SIP, sequence (VH): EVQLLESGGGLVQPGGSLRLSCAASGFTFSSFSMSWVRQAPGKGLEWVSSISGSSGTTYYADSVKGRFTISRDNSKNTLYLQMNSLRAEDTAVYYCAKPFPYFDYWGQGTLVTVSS
radioiodinated (125I) L19-SIP, sequence (VL): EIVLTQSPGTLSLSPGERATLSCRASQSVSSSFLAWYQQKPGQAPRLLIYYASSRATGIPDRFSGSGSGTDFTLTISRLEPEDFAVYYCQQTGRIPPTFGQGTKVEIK
radioiodinated (125I) L19-IgG1, sequence (VH): as the sequence (VH) above
radioiodinated (125I) L19-IgG1, sequence (VL): as the sequence (VL) above
radioiodinated (125I) scFv(L19)2, sequence (VH): as the sequence (VH) above
radioiodinated (125I) scFv(L19)2, sequence (VL): as the sequence (VL) above
recombinant ED-B domain of fibronectin, conjugated to Sepharose, sequence (P02751 1266-1356 limits assumed): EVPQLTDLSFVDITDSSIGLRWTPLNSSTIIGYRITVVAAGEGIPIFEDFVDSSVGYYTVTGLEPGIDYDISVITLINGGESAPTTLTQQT
I-131-L19-SIP, sequence (VH): as the sequence (VH) above
I-131-L19-SIP, sequence (VL): as the sequence (VL) above
Y-88-MX-DTPA-ε-HN(Lys)-L19-SIP, sequence (VH): as the sequence (VH) above
Y-88-MX-DTPA-ε-HN(Lys)-L19-SIP, sequence (VL): as the sequence (VL) above
In-111-MX-DTPA-ε-HN(Lys)-L19-SIP, sequence (VH): as the sequence (VH) above
In-111-MX-DTPA-ε-HN(Lys)-L19-SIP, sequence (VL): as the sequence (VL) above
Tc-99m-MAG2-ε-HN(Lys)-L19-SIP, sequence (VH): as the sequence (VH) above
Tc-99m-MAG2-ε-HN(Lys)-L19-SIP, sequence (VL): as the sequence (VL) above
In-111-MX-DTPA-Maleimide-S(Cys)-L19-SIP-R (R=reduced), sequence (VH): as the sequence (VH) above
In-111-MX-DTPA-Maleimide-S(Cys)-L19-SIP-R (R=reduced), sequence (VL): as the sequence (VL) above
(3-(4-hydroxy-3-[131I]iodo-phenyl)-propionate)-L19-SIP, sequence (VH): as the sequence (VH) above
(3-(4-hydroxy-3-[131I]iodo-phenyl)-propionate)-L19-SIP, sequence (VL): as the sequence (VL) above
I-123-L19-SIP, sequence (VH): as the sequence (VH) above
I-123-L19-SIP, sequence (VL): as the sequence (VL) above
I-124-L19-SIP, sequence (VH): as the sequence (VH) above
I-124-L19-SIP, sequence (VL): as the sequence (VL) above
In-111-DOTA-C-Benzyl-p-NCS-ε-HN(Lys)-L19-SIP, sequence (VH): as the sequence (VH) above
In-111-DOTA-C-Benzyl-p-NCS-ε-HN(Lys)-L19-SIP, sequence (VL): as the sequence (VL) above
Re-188-L19-SIP, sequence (VH): as the sequence (VH) above
Re-188-L19-SIP, sequence (VL): as the sequence (VL) above
Lu-177-DOTA-C-Benzyl-p-NCS-ε-HN(Lys)-L19-SIP, sequence (VH): as the sequence (VH) above
Lu-177-DOTA-C-Benzyl-p-NCS-ε-HN(Lys)-L19-SIP, sequence (VL): as the sequence (VL) above
Tc-99m-L19-SIP, sequence (VH): as the sequence (VH) above
Tc-99m-L19-SIP, sequence (VL): as the sequence (VL) above

In the case of “In-111-MX-DTPA-ε-HN(Lys)-L19-SIP (from UniProt P01854 319-426) (antibody)”, the Immunoreactivity [1] was 77.5%.

“Tc-99m-L19-SIP (from UniProt P01854 319-426) (antibody)” gave an Immunoreactivity [1] of 91.4%.

With “Re-188-L19-SIP (from UniProt P01854 319-426) (antibody)” the Immunoreactivity [1] was 91.7%.

Work on “Lu-177-DOTA-C-Benzyl-p-NCS-ε-HN(Lys)-L19-SIP (from UniProt P01854 319-426) (antibody)” yielded an Immunoreactivity [1] of 73.4%.

In the case of “I-131-L19-SIP (from UniProt P01854 319-426) (antibody)”, the Immunoreactivity [2] was 76% and the Immunoreactivity [3] was 78%.

Work on “I-123-L19-SIP (from UniProt P01854 319-426) (antibody)” yielded an Immunoreactivity [1] of 84%.

Work on “Y-88-MX-DTPA-ε-HN(Lys)-L19-SIP (from UniProt P01854 319-426) (antibody)” yielded an Immunoreactivity [1] of 70.5%.

Work on “(3-(4-hydroxy-3-[131I]iodo-phenyl)-propionate)-L19-SIP (from UniProt P01854 319-426) (antibody)” yielded an Immunoreactivity [1] of 69%.

In the case of radioiodinated (125I) scFv(L19)2, the Immunoreactivity (I), % of the value before i.v. injection [4] was 4%, the Immunoreactivity [5] was > 90% and the Immunoreactivity (I), % of the value before i.v. injection [6] was 14%. For the same substance, the Immunoreactivity (I), % of the value before i.v. injection [7] was 32%, the Immunoreactivity (I), % of the value before i.v. injection [8] was 9% and the Immunoreactivity (I), % of the value before i.v. injection [9] was 27%. The Immunoreactivity (I), % of the value before i.v. injection [10] was 36%.

Substance “Tc-99m-MAG2-ε-HN(Lys)-L19-SIP (from UniProt P01854 319-426) (antibody)” has an Immunoreactivity [1] of 81.1%.

“I-124-L19-SIP (from UniProt P01854 319-426) (antibody)” gave an Immunoreactivity [1] of 86%.

In the case of “radioiodinated (125I) L19-SIP (from UniProt P01854 319-426) (antibody)”, the Immunoreactivity (I), % of the value before i.v. injection [4] was 95%, the Immunoreactivity [5] was > 90% and the Immunoreactivity (I), % of the value before i.v. injection [6] was 95%. It also gave an Immunoreactivity (I), % of the value before i.v. injection [7] of 100%, an Immunoreactivity (I), % of the value before i.v. injection [8] of 100% and an Immunoreactivity (I), % of the value before i.v. injection [9] of 100%. The Immunoreactivity (I), % of the value before i.v. injection [10] was 100%.

Substance “In-111-DOTA-C-Benzyl-p-NCS-ε-HN(Lys)-L19-SIP (from UniProt P01854 319-426) (antibody)” has an Immunoreactivity [1] of 75.1%.

For “radioiodinated (125I) L19-IgG1 (from UniProt P01857 1-330) (antibody)”, the Immunoreactivity (I), % of the value before i.v. injection [4] was 95%, the Immunoreactivity [5] was > 90% and the Immunoreactivity (I), % of the value before i.v. injection [6] was 100%. It also gave an Immunoreactivity (I), % of the value before i.v. injection [7] of 100%, an Immunoreactivity (I), % of the value before i.v. injection [8] of 100% and an Immunoreactivity (I), % of the value before i.v. injection [9] of 95%. It also gave an Immunoreactivity (I), % of the value before i.v. injection [10] of 100%.

“In-111-MX-DTPA-Maleimide-S(Cys)-L19-SIP-R (R=reduced) (from UniProt P01854 319-426) (antibody)” showed an Immunoreactivity [1] of 88.5%.
